Experimental findings from publication PMC9535869, “A novel nuclear receptor subfamily enlightens the origin of heterodimerization” are described below.

Holding throughout (settings): protein: recombinant; tags: His6 tag, cleaved by thrombin; chain copies: 2
Data set [1] addresses T1, NR7 deltaA/B (called full-length NR7), homodimer (Branchiostoma lanceolatum, UniProt A0A6B9UN24 30-389). The data set can be described thus: SEC-nMS; Oligos annealed in 10 mM Tris-HCl pH 8.0, 100 mM NaCl, 0.1 mM EDTA; protein dimer:DNA 1:1.2; native 8% PAGE in 60 mM Tris/40 mM CAPS pH 9.4, pre-run at 4 C; SEC-nMS buffer not given in the material.
Data set [2] deals with T1, NR7 deltaA/B (called full-length NR7), …. In words: SEC-nMS; NR7 and RXR mixture; Oligos annealed in 10 mM Tris-HCl pH 8.0, 100 mM NaCl, 0.1 mM EDTA; protein dimer:DNA 1:1.2; native 8% PAGE in 60 mM Tris/40 mM CAPS pH 9.4, pre-run at 4 C; SEC-nMS buffer not given in the material.
The target is the same in data set [3]. The data set can be described thus: SEC-nMS; homodimer on DNA, 102405 Da; Oligos annealed in 10 mM Tris-HCl pH 8.0, 100 mM NaCl, 0.1 mM EDTA; protein dimer:DNA 1:1.2; native 8% PAGE in 60 mM Tris/40 mM CAPS pH 9.4, pre-run at 4 C; SEC-nMS buffer not given in the material.

T1 sequence (A0A6B9UN24 entry or part of it mutant): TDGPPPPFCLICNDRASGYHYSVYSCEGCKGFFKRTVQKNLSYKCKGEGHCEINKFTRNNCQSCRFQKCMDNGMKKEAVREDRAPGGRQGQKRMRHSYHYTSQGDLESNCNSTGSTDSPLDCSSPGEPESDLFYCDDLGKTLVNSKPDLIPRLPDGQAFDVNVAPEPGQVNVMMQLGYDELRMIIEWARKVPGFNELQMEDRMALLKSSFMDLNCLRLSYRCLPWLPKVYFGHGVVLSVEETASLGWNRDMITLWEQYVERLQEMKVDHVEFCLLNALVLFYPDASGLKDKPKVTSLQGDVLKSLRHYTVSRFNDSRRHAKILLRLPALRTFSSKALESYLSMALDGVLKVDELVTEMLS

B1: DR1 (dsDNA)
DNA 1: GATTTGAGGTCAGAGGTCACACAGTT
DNA 2: AACTGTGTGACCTCTGACCTCAAATC
With B1, the binding result in data set [1] is listed as “binds”.

B2: IR3 (dsDNA)
DNA 1: GATTTGAGGTCACAGTGACCTCACAG
DNA 2: CTGTGAGGTCACTGTGACCTCAAATC
As to B2, the binding result in data set [2] is “binds”.

B3: DR4 (dsDNA)
DNA 1: ATTTGAGGTCACAGGAGGTCACACAG
DNA 2: CTGTGTGACCTCCTGTGACCTCAAAT
On to B3, for which the binding result in data set [1] is recorded as “binds”.

B4: DR0 (dsDNA)
DNA 1: GATTTGAGGTCAAGGTCACACAGTTA
DNA 2: TAACTGTGTGACCTTGACCTCAAATC
Consider B4, for which, in data set [3], the binding result is “binds”.
